Reference: patent publication US20250188193A1

Legend:
[1] = target: soluble human FcγRIIa ectodomain (human) (UniProt P12318); assay: SPR (Biacore T200), mAb on Protein G chip, soluble FcγR ectodomain as analyte
[2] = target: soluble human FcγRIIb ectodomain (human) (UniProt P31994); assay: as above
[3] = target: soluble human FcγRIIIa ectodomain (human) (UniProt P08637); assay: as above
[4] = target: Rituximab G2 (galactosylated afucosylated glycoform); assay: SPR, 256 to 8 nM
[5] = target: Rituximab G2F (galactosylated fucosylated glycoform); assay: SPR, 256 to 8 nM

Sequence of soluble human FcγRIIb ectodomain (human) (P31994 43-217): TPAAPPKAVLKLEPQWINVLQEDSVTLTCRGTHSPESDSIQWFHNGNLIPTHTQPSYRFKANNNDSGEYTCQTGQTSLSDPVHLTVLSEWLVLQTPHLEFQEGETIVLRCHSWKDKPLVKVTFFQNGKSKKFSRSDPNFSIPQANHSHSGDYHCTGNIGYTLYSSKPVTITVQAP
Sequence of tetrameric FcγRIIIA (P08637 17-208 limits assumed): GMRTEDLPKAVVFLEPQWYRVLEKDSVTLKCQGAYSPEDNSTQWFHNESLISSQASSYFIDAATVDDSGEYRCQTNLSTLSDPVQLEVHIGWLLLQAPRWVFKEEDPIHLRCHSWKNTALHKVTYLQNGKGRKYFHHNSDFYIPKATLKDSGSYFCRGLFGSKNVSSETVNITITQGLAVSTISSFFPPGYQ

Row | Fold (affinity relative to Wild-type) [1] | Kd [1] | Fold (affinity relative to Wild-type) [2] | Kd [2] | Fold (affinity relative to Wild-type) [3] | Kd [3] | KD1 [4] | KD2 [4] | KD1 [5] | KD2 [5] | Substance
1 | 5.5 fold | 186 nM | 1.1 fold | 2890 nM | 0.8 fold | 903 nM |  |  |  |  | human IgG1 Fc variant printed 'GAALIE' in the second such row of Table 9 (r13) (antibody)
2 | 0.5 fold | 2070 nM | 0.8 fold | 3920 nM |  | 169 nM |  |  |  |  | human IgG1 Fc variant: ALIE (antibody)
3 |  | 747 nM |  | 2220 nM |  |  |  |  |  |  | human IgG1 Fc variant: Afucosylated (antibody)
4 | 2.7 fold | 387 nM | 0.8 fold | 4150 nM |  | 218 nM |  |  |  |  | human IgG1 Fc variant: GAALIE (antibody)
5 | 1 fold | 1030 nM |  | 3110 nM | 1 fold | 740 nM |  |  |  |  | human IgG1 Fc variant: Wild-type (antibody)
6 |  |  |  |  |  |  | 29.9 nM | 2.3 nM | 55.2 nM | 2.29 nM | tetrameric FcγRIIIA (from UniProt P08637 17-208) (receptor)
